Measurements from the DeepSol protein solubility set.

Test: soluble on expression in E. coli; label from the status in PepcDB or PDB records

Soluble on expression in E. coli, not soluble:
MGSDKIHHHHHHMRPIQRKRVPGLNAWEARWYHGTKWVRVSSANGKSRRARRFSLMVLGGWVMERAQHNLRFTELARARAYAQAHGLRQKAVCHIVRRGTELLVFDHVPDGGAGVQVVAGGLEAGETPEQAALREAGEETGQDGFQVVGFLGSAVWLNTEHAKRELRHFVHLTAPDDLPDTWQHCADGHLFSFRWEPLHSARVDWEMDAFLPELG
MGSDKIHHHHHHMRQESLFNPDKSSSSPLAYRVRPVTLADFKGQEHLLGPGKLLRQLIAEDQLPSLIFWGPPGVGKTTLAEIIAQQTQSHFITFSAVTSGIKEIRQIMDEAEANRDFGEKTIVFIDEIHRFNKAQQDAFLPYVERGSITLIGATTENPSFEINAALLSRCKVLVLKALTPDALEAVLQGALQNPKGFPDLEITMQPDTLRLIAEFANGDARMALNTLEMAVLNGDRDGKHVTITTAGLSQLINTKSLRYDKHGEEHYNIISALHKSMRNSDVDAAIYWLMRMLAGGEDPLYIARRLIRFASEDIGLADRQALPLTVAVFQACQLIGMPECDVNLTEAVTYLALAPKSNALYAAKSAAQADIKATGNLPVPLQIRNAPTKLMKDLGYGSDYQYAHDTAAKLTTMTTMPPELKQHRYYEPTSQGQEKAWQQRLAAIRSGTSNIRKPNRQMMRHKDCNLMRIH
MGSDKIHHHHHHMRRTDKKKTFGQQSSKVTQLADTLSQAISMKKFREGDSLPSINQLSAEYGVSRDTVFKAFLDLRERGLIDSTPGKGYYVTSQVTNVLLLLDQYTPFKEALYNSFVKHLPINYKVDLLFHQYNERLFNTIIRESVGKYNKYIVMNFDNEKFSMVLNKIHPTKLLLLDFGKFEKEKYSYICQDFDEAFYQALLMLKEKLRHYPQLVLLFSKNLKHPQSSKEYFTRFCEEQGFLCEIQEDIENLTVRKGVVYIAIKQQDVVKVVKQGRLEGLKCGKDFGLLAYNDIPSYEVIDEGITSLSIDWEMMGNEAANFVLNNVPIQKYLPTEVRLRKSL
MGSDKIHHHHHHMRTYRLVIACPDRVGIVAKVSNFLALYNGWINEASHHSDEQSGWFFMRHEIRAESLPFGIEAFREAFAPIAEEFSMTWRITDSAQKKRVVLMASRESHCLADLLHRWHTDELDCEIPCVISNHNDLRSMVEWHGIPFFHVPVDPKDKAPAFAEVSRLVQEHAADVVVLARYMQILPPQLCRDYAEKVINIHHSFLPSFVGAKPYHQAALRGVKLIGATCHYVTEELDAGPIIEQDVVRVSHADSIEDMVRFGRDVEKMVLARGLRYHLEDRVLVHGNKTVVFD
MGSDKIHHHHHHMRVLIINTSERIGGAAVAAGRLMESLKNNGIKAKMLVRDKQTDQISVVGLKGSWLHVWKFMWERIVIWKANRFKKNDLFAVDIANTGTDITSLPEFQQADVIHLHWINQGMLSLNTIRKILTSGKPVVWTMHDMWPCTGICHYARECKNYEQECHHCPYIYGGGGKKDLSTRIFRKKKEIYSQASITFVGCSRWLAEKAKVSGLLTGQTVISIPNAINTNLFKPHNKQEARRKCRLPQEGKLILFGSVKITDKRKGIDYLIEACKLLAEKHPEWKESLGVVVFGNQSQQLQDLIPFRVYPLPYIKNEHELVDIYNAVDLFAIPSLEENLPNMVMEAMSCGVPCVGFNTGGIPEMIDHLHNGYVAQRKSSEDLANGIHWVLTEPEYAELSAQACRKAIGNYSESIIAKKYTEVYNKITGKYA
MGSDKIHHHHHHMRVLVINSGSSSIKYQLIEMEGEKVLCKGIAERIGIEGSRLVHRVGDEKHVIERELPDHEEALKLILNTLVDEKLGVIKDLKEIDAVGHRVVHGGERFKESVLVDEEVLKAIEEVSPLAPLHNPANLMGIKAAMKLLPGVPNVAVFDTAFHQTIPQKAYLYAIPYEYYEKYKIRRYGFHGTSHRYVSKRAAEILGKKLEELKIITCHIGNGASVAAVKYGKCVDTSMGFTPLEGLVMGTRSGDLDPAIPFFIMEKEGISPQEMYDILNKKSGVYGLSKGFSSDMRDIEEAALKGDEWCKLVLEIYDYRIAKYIGAYAAAMNGVDAIVFTAGVGENSPITREDVCSYLEFLGVKLDKQKNEETIRGKEGIISTPDSRVKVLVVPTNEELMIARDTKEIVEKIGR
MGSDKIHHHHHHMRWEEVEPVVRELLDFQISSPEEFRTFINKVTDFFDRVREEHGWLYIKMTVNADKEEFAKAYEEFQKEIVAKLKPYEQKIKEKIVENEHFAPRGYEHMIKVIKNDVELFREENVPLQVKESILSRNYGTIVGNIEVDFEGEKKTLQQLSVYLRDPDRSTRELAWRKRYEGIWEVRDKLNKLFDELKEIRHQQALNAGFSNYRDYMHRLKSRFEYTPEDLYRFHEAVEKEVVPYLVERTKIRQRKLGIESVRPWDTAVDVDGKVLKPFSSVEEFMEKTERALKRLNPTFAERFRLMREKNLLDLENRKGKAPGGYNHTLPKTGAPFIFMNAVGQPGDVRTIFHELGHSMHSFETLSLPVFYRPHRMEVAELASMSLELISMEYWDEFYTDPEDLKKAKIEELEGALYFLPWCMIVDAFQHWIYTNPDHTPKERDEYFAYLMDRFNPGVDWSDLDEEKKTRWLFQLHIFEVPFYYIEYGIAQIGALAIYRNYIEDPEKTLKDYQRFLSVGCSMPVDEVYKTAGIELKFSRDYIREIVDFVAKQIEEIEK
MGSDKIHHHHHHMRYTLRQLEVFVAIAQHESVSLAARRLAMSQSATSTALAELERQFDCQLLDRIGKRLKLNALGFQLLPKAVALLDRGEEIEELLKGQRGIGSLDVGATLTIGNYLATLLISDFMRRHPGSRVRLHVRNTASIVDRVTHHDLDLGLIEGDCQHDDIVMQPWVEDELTVFCSPRHPLANAGEADLEALMREDWIMREEGSGTRRTLDQAMRHRRGRLNVLLELEHTEAIKRAVESGLGIGCVSHLALRDAFRRGSLVPIATPELDLTRQFTFIWHRHKYLTTAMREFLRLCREMTAGVQRSDEIDLPAVP
MGSDKIHHHHHHMSDSPLIAFPRGCITGTFIRRVKRFSVEMETAGAGAPERVWIHSNNSGSMLGLLRAGAPVLASPAANPARKLKWTQELAGLDGMWVGVNTQTPNRLLEAAFHAGRLPWAAGYTMFRREARCGASRLDARMDAPQDSGLPPLWVECKNVTMVEDDVAAFPDAATERGQKHLREMMEIVRQGQRAAMFYLVQRADGHCFGPADYVDPVYAGLFYEAAAAGVEMYPHRALVSEHGIDLGPLLPVVPPPGV
MGSDKIHHHHHHMSDYNFAYLDEQTKRMIRRAILKGLAIPGYQVPFASREMPMPYGWGTGGVQVSAAALTPDDTFKVIDQGADDTTNAVSIRKFFERTAGVATTEETEKASIIQTRHRIPEADLREDQILVYQVPIPEPLRFLEPRETETRKMHALEEYGLMHVKLYEDISQHGAIATSYAYPVKVEGRYVMDPSPIPKFDNPKMEMAAIQLFGAGREQRIYAVPPYTKVVSLDFEDYPFEATKAEHPCDLCAAEDSYLDEVIVDDQGGRMFVCSDTDYCRSRREAGHVGRLGQNAPLNTGPEAA
MGSDKIHHHHHHMSEIKNRIDFVYIFDVQDGNPNGDPDAGNLPRVDAETGMGLVTDVCLKRKVRNYVQVAKGLEDGYDIFIKEKAVLNTLIDKAHDDSEVKNAKDKTDAARRFMCKNYFDVRTFGAVMSTGKNAGQVRGPIQFTFARSVDPIAAAEHSITRMAVATDAEAKKQSGDNRTMGRKATVPYGLYICHGFISANLAQQTGFSEEDLALFWEALKNMFDMDRSAARGLMSAQKLIVFKHDSVLGNAPANKLFDLVKVEKVCDGAPRSFGDYHVTIDKEHVPSNVTVEELI
MGSDKIHHHHHHMSEIWRQCKGERHIRPLQGRLVRLVESQEQVATLQLVDTLEEQALLEELLESSKPPVPADAEPLHYLLKTPFRYPPLRWGSRFGRRHEPSLFYAALKLETAMAESAYYRCVLWSGMVVPPPSGRILSEHASFEAGWKVERGIRLQAPPFSDHEAALTDIADYRAPQELGSAMRSAGVQAFEYRSARCPERGCNVALFTPAAFTEKRPRNLTPWLCETTAGYVAFKPAHVPGSPKIFSWELFLVDGKLPHPA
MGSDKIHHHHHHMSEKQTTILIINMASDFGGGEIQTEELMLNLTNYNICFFGKSSGKFIPRLKEKAPHIKIVNLWEMLKLVFCCSSLIIHAQDGRGAHIAGFLKKISGRPVVITRHVSFPFKRKFSLSSYKNADMLVGVSQQVTENLKLLNSNCRTIYGCIKPLLENAEFEQRYFVKKHILAIAHIGNLQAVKNFQLTLSLAKNFSQIQFFIVGSGELEQELKQQAINLPNITFIPFTPYIGSVFKKVDLQIVPSHSEGLGAVILEGYQYRVSVIAHQTGGISEIVQNEKTGFLVENNDPMIYHKILTTLLDNPQKLCELKQNVERYIFEHDFSARRMALEYEQVYSAILANRTQK
MGSDKIHHHHHHMSELLAIPLKRTLEVDFATELSKLIDTTSFQTASFFQSDILKVVDARNNAIAPDISIDGLSALKEYYVILLQLEKKFPNNQIEFTWFQTLSQKSRGTSQYSLQWEKLTIIYNIGCMYSLLALNSNNDAAESLKTSCLYFQNAAGCFKHVLDHQKNLETIPVVDDATLNALTSLMLAQAQECFWFKAVQDKHKDSLIAKLSQQIVDFYCEAINDAQRGKLIRSDWINHLKAKKAYFSAVTYYRIALSFNEKKQFGNVVKALQMGLQFINESTLSSQAKFKTVVESSLKEAQRDNEFIYLQEVPSELPSIKPALMVKPSSSATLLPSIKKDETLFKDLIPIEVMEYCTAYNERQDEYVEQRVTNPLASLNKLLKESLTTFQIPQGLTKVSEAELSHYQASLNNLLINNKNVQVQLDNIEQILNEEAFTDNQLRLKHGTLNWTLPESSTTNTAYYEKLKKLRGYLDEGSAIDKQTNELFQSIDKNLIGSEIRLPESNDPLTNKIKMIIQERNDYIDRTRRKSSEYRILPKIITSYKKNGTVDFEPIFIGHLKYFDEDLRYVNSTKEENIKLIEEVNLSKKNNPGRSGIEPKKMVRIDPRELYIEDLRYSFKLLDEVKENLSAGTAFYENLITSTSNLYNEVQEYDTARRAEKARLDKSLTFEDQ
MGSDKIHHHHHHMSFKDIQADFIEAIRRPDLPCPHGIAPQRMGVYRELFFNNVSGFVNSGFPVLKSLYGEAQWQAQLRQFFTEHDCQNPLFIGIAGEFLAFLSARERQVDEPPFLLELAHYEWLELVVATAMEQGDEAAFDDTALAQQAYLDARLGLASHARVAQYHFEVEKISPQYQPDTPLPSPCYFCLYRDSDDEVSFLKLNPMTAQLLAVLEANTGIKYIELLQKMQALYPNFDGQQLREGIAQVLGQMAVRGVVVQKLQ
MGSDKIHHHHHHMSGTLITSDVDVDAHGKQQAYLRVPHSVHRSAYGWIPVPIAVIRNGDGPTLVISAGVHGDEYEGQIAVATLIRTLDATDIRGRLILLPMVNVPAAEAGCRTSPIDAGNLNRLYPGDPKGMPSQMIAHFHEEVILPLADYAVDLHSGGSSLIYPATVMRGPSHSPQEEDGLATLVDAFDLPYTWVFQGGGGRDSTARTAMGAANRKGVINVMAELGGAGCVTPDVLHRTERGLRRILHAVGMLPGYVPDGAQGTRAVSVQGSVYAFETGVFEPLKSIGGDVVKGEAVAHIHHPETPGKAPDVVLSPHAGMVLAMRAMAQVRRGDALYQIAADAG
MGSDKIHHHHHHMSIIDLTKLEQKVATMWDSILTNSPFIHEVLDGKATKALYAIYMTETYHYTKHNAKNQALVGIMGKDLPGKYLSFCFHHAHEEAGHELMALSDIASIGFDREDVLSSKPLPATETLIAYLYWISATGNPVQRLGYSYWAENVYGYIDPVLKAIQSTLDLTPQSMKFFIAHSKIDAKHAEEVNEMLHEVCKTQEDVDSVVAVMENSLVLTARILDDVWKEYQLFQSGASDRYAFLRDNA
